According to US20230265185A1 (NATIONAL RESEARCH COUNCIL OF CANADA, published 2023):

T1: recombinant extracellular domain of the predominant human CD22-beta isoform (CD22-ECD) (human, UniProt P20273 20-687, CHO-expressed glycoprotein. Capture on an SA chip implies biotinylation, but the patent does not state it for SPR.)
T1 construct: Expressed in CHO-3E7 cells, IMAC and SEC purified, monomeric fraction; Results say it was immobilized onto a CM5 dextran chip; also called human CD22-ECD; hCD22 ecto-domain
T1 sequence: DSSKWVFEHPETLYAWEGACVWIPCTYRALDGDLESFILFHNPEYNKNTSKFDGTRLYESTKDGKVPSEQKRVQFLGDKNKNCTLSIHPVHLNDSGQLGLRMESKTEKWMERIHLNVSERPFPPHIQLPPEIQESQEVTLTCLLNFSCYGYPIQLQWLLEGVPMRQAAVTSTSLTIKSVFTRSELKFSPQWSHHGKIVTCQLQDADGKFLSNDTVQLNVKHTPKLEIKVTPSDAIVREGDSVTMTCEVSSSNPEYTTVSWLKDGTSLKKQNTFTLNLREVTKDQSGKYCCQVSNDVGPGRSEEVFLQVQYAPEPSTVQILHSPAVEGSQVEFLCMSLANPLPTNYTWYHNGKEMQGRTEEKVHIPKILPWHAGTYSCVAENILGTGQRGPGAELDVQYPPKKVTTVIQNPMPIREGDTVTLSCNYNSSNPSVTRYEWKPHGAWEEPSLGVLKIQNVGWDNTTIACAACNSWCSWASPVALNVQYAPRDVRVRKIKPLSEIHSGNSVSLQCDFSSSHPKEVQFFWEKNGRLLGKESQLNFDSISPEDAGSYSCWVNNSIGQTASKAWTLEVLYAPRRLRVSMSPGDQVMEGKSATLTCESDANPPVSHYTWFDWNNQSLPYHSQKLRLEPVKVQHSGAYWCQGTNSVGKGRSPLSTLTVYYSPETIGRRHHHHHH


Target: T1, recombinant extracellular domain of the …
Test: SPR, Biacore T200, VHH over immobilized CD22-ECD
Description: For surface Plasmon resonance, 21 selected VHHs were passed though size exclusion columns, superdex 75 (GE Healthcare), respectively, in 10 mM HEPES, pH 7.4, containing 150 mM NaCl, 3 mM EDTA, monomeric sdAb fractions were collected and protein concentrations were determined by measuring absorbance at 280 nm (A280). Analysis were performed with Biacore T200 instrument (GE Healthcare). All measurements were carried out at 25° C. in 10 mM HEPES, pH 7.4, containing 150 mM NaCl, 3 mM EDTA and 0.005% surfactant P20 (GE Healthcare). Approximately 1919 RUs of the recombinant monomeric CD22-ECD (obtained after SEC purification of the CD22-ECD) were captured on SA sensor chip (GE Healthcare) at a flow rate of 5 uL/min. Various concentration of the monomeric VHHs were injected over CD22-ECD surface, respectively using an SA surface as a reference at a flow rate of 40 µL/min. Surfaces were generated by washing with running buffer. Data were analysed with BIAevaluation 4.1 software.
The monomeric fraction of all 21 VHHs were used for SPR experiment where the human CD22-ECD was immobilized onto the CM5 dextran chip and various VHH concentration (0.6-400 nM) were passed over the sensor chip. […] All of the data collected fit a 1:1 binding model.

Row | Binder | Kd [nM] | koff [s⁻¹] | kon [M⁻¹ s⁻¹]
1 | hCD221ug-6 (VHH, single biotin at the VHH C-terminal (biotinylation signal sequence), llama VHH, expressed in E. coli TG1, IMAC purified, monomeric SEC fraction; also called VHH # 5) VHH: QVQLVESGGGVVRPGDSLRLSCTVSGFTLDYYVMGWFRQAPGKEREVVSCISSSDGVTYYADSVKGRFTISRDNAKNTVYLQMNSLKPEDTAIYYCAVDKPFYDGGYYYTCPVDFDSWGQGTQVTVSS | 2.41 | 0.000129 | 53600
2 | hCD221ug-77 (VHH, single biotin at the VHH C-terminal (biotinylation signal sequence), llama VHH, expressed in E. coli TG1, IMAC purified, monomeric SEC fraction; also called VHH # 8) VHH: QVKLEESGGGLVQPGGSLRLSCADSGSIFRIAVMNWYRQAPGKERELVAVITSGGETHYAASVKGRFTISRDNAKNTMYLQMNSLKPEDTAVYYCNAKWGQYEYWGQGTQVTVSS | 4.77 | 0.00262 | 550000
3 | hCD221ug-87 (VHH, single biotin at the VHH C-terminal (biotinylation signal sequence), llama VHH, expressed in E. coli TG1, IMAC purified, monomeric SEC fraction; also called VHH # 9) VHH: QVQLVESGGGLVQPGGSLRLSCADSGSIFRIAVMNWYRQAPGKERELVAVITSGGETHYAASVKGRFTISRDNAKNTMYLQMNSLKPEDTAVYYCNAKWGRDEYWGQGTQVTVSS | 0.647 | 0.000797 | 1.23e+06
4 | hCD221ug-93 (VHH, single biotin at the VHH C-terminal (biotinylation signal sequence), llama VHH, expressed in E. coli TG1, IMAC purified, monomeric SEC fraction; also called VHH # 11) VHH: QVKLEESGGGLVQAGGSLRLSCAASGSTFSSSVMNWYRQAPGKQRELVAVITSSGSTHYADSVKGRFTISRDNAKNTVNLQMNSLKPEDTAVYYCNAQYGRRSDWGQGTQVTVSS | 7.7 | 0.0105 | 1.36e+06
5 | hCD22pas-79 (VHH, single biotin at the VHH C-terminal (biotinylation signal sequence), llama VHH, expressed in E. coli TG1, IMAC purified, monomeric SEC fraction; also called VHH # 18) VHH: QVKLEESGGGLVQPGGSLRLSCTVSGRTSSVYGMAWFRQTPGKEREFVAAMSWSGGPTYFADSVKGRFGSSRDNAKNTVYLQMNGLRPEDTAVYYCAVRIRRTLLEPLTKETLYDYWGQGTQVTVSS | 7.72 | 0.00397 | 514000
6 | hCD221ug-74 (VHH, single biotin at the VHH C-terminal (biotinylation signal sequence), llama VHH, expressed in E. coli TG1, IMAC purified, monomeric SEC fraction; also called VHH # 3) VHH: QVKLEESGGGLVQAGGSLRLSCAGSGFTFDDYAMGWFRQAPGKEREVVSCMGSSDGATYYADSVKGRFTISRDNAKNTVYLQMNSLKPEDTAIYYCAVDKPFYDGGYRYTCPVDFGSWGQGTQVTVSS | 7.08 | 0.000655 | 92500

Other lines, results leading:

Row | Kd [nM] | koff [s⁻¹] | kon [M⁻¹ s⁻¹] | Binder
7 | 2.78 | 0.00013 | 46800 | hCD22100ng-2 (VHH, single biotin at the VHH C-terminal (biotinylation signal sequence), llama VHH, expressed in E. coli TG1, IMAC purified, monomeric SEC fraction; also called VHH # 2) VHH: QVKLEESGGGLVQPGGSLRLSCTVSGVTFDYYVMGWFRQAPGKEREVVSCMRNSDGVTYYADSVKGRFTISRDNAKNTVYLQMNSLKPDDTAIYYCAVDKPFYDGGNYYTCPVDFDSWGQGTQVTVSS
8 | 0.924 | 0.000134 | 145000 | hCD22100ng-66 (VHH, single biotin at the VHH C-terminal (biotinylation signal sequence), llama VHH, expressed in E. coli TG1, IMAC purified, monomeric SEC fraction; also called VHH # 4) VHH: QVQLVESGGGLVQPGGSLRLSCTVSGFSLDYYVMGWFRQAPGKEREVVSCISSSDGATYYPDSVKGRFTISRDNAKKTVYLQMNALKPEDTAIYYCAVDKPFYDGGSYYTCPVDFGSWGQGTQVTVSS
9 | 19 | 0.00289 | 152000 | hCD22pas-10 (VHH, single biotin at the VHH C-terminal (biotinylation signal sequence), llama VHH, expressed in E. coli TG1, IMAC purified, monomeric SEC fraction; also called VHH # 6) VHH: QVQLVESGGGLVQPGDSLRLSCTVSGFTSDYYAMGWFRQAPGKEREAVSCISSSDGVTYYADSVRGRFTISRDNAKNTVYLEMNSLKPEDTAIYYCAVDKPFYDGGYLYTCPVDFDSWGQGTQVTVSS
10 | 0.865 | 0.00121 | 1.4e+06 | hCD221ug-75 (VHH, single biotin at the VHH C-terminal (biotinylation signal sequence), llama VHH, expressed in E. coli TG1, IMAC purified, monomeric SEC fraction; also called VHH # 10) VHH: QVKLEESGGGLVQPGGSLRLSCAGSGSIFRIAVMNWYRQAPGKERELVAVITSGGDTHYAASVKGRFTISRDNAKNTMYLQINSLKPEDTAVYYCNAKYGRDEYWGQGAQVTVSS
11 | 2.75 | 0.001 | 365000 | hCD22pas-16 (VHH, single biotin at the VHH C-terminal (biotinylation signal sequence), llama VHH, expressed in E. coli TG1, IMAC purified, monomeric SEC fraction; also called VHH # 20) VHH: QVQLVESGGGLVQAGGSLRLSCAASGSTFSLKAMAWYRQAPGKQRERVGVINSDGSYTTDAASVQGRFTISRDNAKNTVYLQMNSLKPEDTAVYYCNTMPPWPWGQGTQVTVSS
12 | 0.00684 | 2.1e-05 | 3.07e+06 | hCD221ug-14 (VHH, single biotin at the VHH C-terminal (biotinylation signal sequence), llama VHH, expressed in E. coli TG1, IMAC purified, monomeric SEC fraction; also called VHH # 16; 9-hCD22 1ug-14) VHH: QVKLEESGGGLVQAGGSLRLSCAVSGRIFRSYVLGWFRQAPGKERELVARIGWSDTYYADSVKGRFTISRDNAKNTVDLQMNSLKPEDTAVYYCAANSPPYGPQRDEFDYWGQGTQVTVSS
13 | 2.6 | 0.00014 | 54000 | hCD22pas-33 (VHH, single biotin at the VHH C-terminal (biotinylation signal sequence), llama VHH, expressed in E. coli TG1, IMAC purified, monomeric SEC fraction; also called VHH # 7) VHH: QVKLEESGGGLVQPGGSLRLSCTVSGFTLDSYVMGWFRQAPGKEREAVSCISSSDGVTYYADSVKGRFTISRDNAKNTYLQMNSLKPEDTAIYYCAVDKPFYDGGYLYTCPVDFDSWGQGIQVTVSS
